Experimental data as given in US20220025008A1 (FAPON BIOTECH, published 2022).

T1: Recombinant NT antigen (N-terminal pro-brain natriuretic peptide, NT-proBNP) (human, UniProt P16860 27-102)
T1 construct: domain: N-terminal pro-brain natriuretic peptide (NT-proBNP); also called recombinant NT protein; N-terminal pro-B-type natriuretic peptide
T1 sequence (looked up): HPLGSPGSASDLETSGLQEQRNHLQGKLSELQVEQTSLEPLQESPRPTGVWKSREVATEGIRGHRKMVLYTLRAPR


biological target: T1, Recombinant NT antigen (N-terminal …); assay: indirect ELISA, KD calculated from half-max OD at 4 coating concentrations
Description: Recombinant NT antigen was diluted with coating solution to 1 μg/ml a microplate overnight at 4° C.; which was washed twice with washing solution and patted dry on the next day; with addition of blocking solution (20% BSA+80% PBS) at 120 μL per well at 37° C. for 1 h and patted dry; added the diluted NT monoclonal antibody, 100 μL/well at 37° C. for 30 min (partial supernatant for 1 h); washed 5 times with washing solution and patted dry; added rabbit anti-goat IgG-HRP […] per well at 37° C. for 30 min; washed 5 times with washing solution and patted dry; added color developing solution A (50 μL/well), added color developing solution B (50 μL/well) for 10 min; added stop solution, 50 μL/well; followed by reading the OD value at 450 nm (reference 630 nm) on the microplate reader.
Data from the enzyme immunoassay indirect method were analyzed in the same way as the activity identification, with four gradients of 3 μg/ml, 1.5 μg/ml, 0.75 μg/ml and 0.375 μg/ml for coating; the antibody was diluted from 1000 ng/ml by 2 times to 0.977 ng/ml for loading sample. OD values corresponding to different antibody concentrations at different coating concentrations were obtained. Under the same coating concentration, data were plotted logarithmically with the antibody concentration as the abscissa and the OD value as the ordinate.

Row | Binder | Kd [nM]
1 | Mutation 1 (antibody, V domains shown, also called mutant 1 antibody) VH: QVRLQESGPSQVKPAQTLSLTCAISGFSITTYYIDWVRHTPGKPPEWLAQMTKDGNAVHQPTIRSRLSITRDTSKSQVFLKLTGVTTEDTAVYYCVRGIIDWGPGLLVTVSS VL: QAVLTQPSSVSRSLGQTVSITCSGSSDQVGFGDYVNWFQLIPGSAPKTLIFGATSRIRGVPDRFSGSRSGNTATLTINSLQAEDEADYYCGSPNSRGGYVFGSGTRLTVLS | 1.73
2 | WT 1-5 (antibody) heavy: QVRLQESGPSQVKPAQTLSLTCAISGPSLTTYYLDWVRHTPGKPPEWLAQMTKDANAVHNPTVRSRLSITRDTSKSQVFLKLTGVTTEDTAVYYCVKGLIDFGPGLLVTVSSASTTPPKVYPLTSCCGDTSSSIVTLGCLVSSYMPEPVTVTWNSGALTSGVHTFPAILQSSGLYSLSSVVTVPASTSGAQTFICNVAHPASSTKVDKRVEPGCPDPCKHCRCPPPELPGGPSVFIFPPKPKDTLTISGTPEVTCVVVDVGQDDPEVQFSWFVDNVEVRTARTKPREEQFNSTFRVVSALPIQHQDWTGGKEFKCKVHNEGLPAPIVRTISRTKGQAREPQVYVLAPPQEELSKSTLSVTCLVTGFYPDYIAVEWQKNGQPESEDKYGTTTSQLDADGSYFLYSRLRVDKNSWQEGDTYACVVMHEALHNHYTQKSISKPPGK light: QAVLTQPSSVSRSLGQTVSITCSGSSDQVGPGDYLNWFQLIPGSAPKTLIFAASSRIRGVPDRFSGSRSGNTATLTINSLQAEDEADYYCGSANSRNYVWGSGTRLTVLSQPKSAPSVTLFPPSKEELDTNKATVVCLISDFYPGSVNVVWKADGSTINQNVKTTQASKQSNSKYAASSYLTLTGSEWKSKSSYTCEVTHEGSTVTKTVKPSECS | 22.6
3 | Mutation 1-1 (antibody) heavy: QVRLQESGPSQVKPAQTLSLTCAISGFSITTYYLDWVRHTPGKPPEWLAQMTKDGNAVHNPTIRSRLSITRDTSKSQVFLKLTGVTTEDTAVYYCVRGIIDFGPGLLVTVSSASTTPPKVYPLTSCCGDTSSSIVTLGCLVSSYMPEPVTVTWNSGALTSGVHTFPAILQSSGLYSLSSVVTVPASTSGAQTFICNVAHPASSTKVDKRVEPGCPDPCKHCRCPPPELPGGPSVFIFPPKPKDTLTISGTPEVTCVVVDVGQDDPEVQFSWFVDNVEVRTARTKPREEQFNSTFRVVSALPIQHQDWTGGKEFKCKVHNEGLPAPIVRTISRTKGQAREPQVYVLAPPQEELSKSTLSVTCLVTGFYPDYIAVEWQKNGQPESEDKYGTTTSQLDADGSYFLYSRLRVDKNSWQEGDTYACVVMHEALHNHYTQKSISKPPGK light: QAVLTQPSSVSRSLGQTVSITCSGSSDQVGFGDYLNWFQLIPGSAPKTLIFGATSRLRGVPDRFSGSRSGNTATLTINSLQAEDEADYYCGSPNSRNYVFGSGTRLTVLSQPKSAPSVTLFPPSKEELDTNKATVVCLISDFYPGSVNVVWKADGSTINQNVKTTQASKQSNSKYAASSYLTLTGSEWKSKSSYTCEVTHEGSTVTKTVKPSECS | 2.51
4 | Mutation 1-3 (antibody) heavy: QVRLQESGPSQVKPAQTLSLTCAISGFSLTTYYIDWVRHTPGKPPEWLAQMTKDGNAVHNPTLRSRLSITRDTSKSQVFLKLTGVTTEDTAVYYCVRGLIDFGPGLLVTVSSASTTPPKVYPLTSCCGDTSSSIVTLGCLVSSYMPEPVTVTWNSGALTSGVHTFPAILQSSGLYSLSSVVTVPASTSGAQTFICNVAHPASSTKVDKRVEPGCPDPCKHCRCPPPELPGGPSVFIFPPKPKDTLTISGTPEVTCVVVDVGQDDPEVQFSWFVDNVEVRTARTKPREEQFNSTFRVVSALPIQHQDWTGGKEFKCKVHNEGLPAPIVRTISRTKGQAREPQVYVLAPPQEELSKSTLSVTCLVTGFYPDYIAVEWQKNGQPESEDKYGTTTSQLDADGSYFLYSRLRVDKNSWQEGDTYACVVMHEALHNHYTQKSISKPPGK light: QAVLTQPSSVSRSLGQTVSITCSGSSDNVGFGDYVNWFQLIPGSAPKTLIFGAYSRIRGVPDRFSGSRSGNTATLTINSLQAEDEADYYCGSANSRNYVFGSGTRLTVLSQPKSAPSVTLFPPSKEELDTNKATVVCLISDFYPGSVNVVWKADGSTINQNVKTTQASKQSNSKYAASSYLTLTGSEWKSKSSYTCEVTHEGSTVTKTVKPSECS | 1.52
